Consider 22 molecules from US11634477 (dated 2023).

To fix the notation:
B1: C207 (antibody, V domains shown)
VH: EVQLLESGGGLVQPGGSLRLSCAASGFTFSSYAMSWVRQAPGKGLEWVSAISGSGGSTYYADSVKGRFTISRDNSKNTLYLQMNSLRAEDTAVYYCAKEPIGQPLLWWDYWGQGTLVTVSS
VL: EIVLTQSPATLSLSPGERATLSCRASQSVSSYLAWYQQKPGQAPRLLIYDASNRATGIPARFSGSGSGTDFTLTISSLEPEDFAVYYCQQRSNWPRGFGQGTKVEIK
B2: C108 (antibody, V domains shown)
VH: QVQLQESGPGLVKPSGTLSLTCAVSGGSISSTNWWSWVRQPPGKGLEWIGEIYHTGSTNYNPSLKSRVTISVDKSKNQFSLKLSSVTAADTAVYYCVRDGGRPGDAFDIWGQGTMVTVSS
VL: QSALTQPASVSGSPGQSITISCTGTSSDVGGYNYVSWYQQHPGKAPKLMIYDVSNRPSGVSNRFSGSKSGNTASLTISGLQAEDEADYYCNSYTSSSTRVFGTGTKVTVL
B3: C145 (antibody, V domains shown)
VH: EVQLVESGGGLIQPGGSLRLSCAASGFSVSSNYMSWVRQAPGKGLEWVSVIYSGGSTYYADSVKGRFTISRDNSKNTLYLQMNSLRAEDTAVYYCAREGEVEGYYDFWSGYSRDRYYFDYWGQGTLVTVSS
VL: B2 VL with N91S, S97T, K106R
B4: C131 (antibody, V domains shown)
VH: QVQLVQSGSEVKKPGSSVKVSCKASGGTFSSYAFSWVRQAPGQGLEWMGRIIPILALANYAQKFQGRVTITADKSTSTAYMELSSLRSEDTAVYYCARVNQAVTTPFSMDVWGQGTTVTVSS
VL: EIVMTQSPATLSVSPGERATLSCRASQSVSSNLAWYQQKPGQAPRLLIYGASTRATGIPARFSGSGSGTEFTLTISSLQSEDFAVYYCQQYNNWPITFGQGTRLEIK
B5: C133 (antibody, V domains shown)
VH: QVQLVESGGGVVQPGRSLRLSCAASGFTFSSYAMHWVRQAPGKGLEWVAVILYDGSNKYYADSVKGRFTISRDNSKNTLYLQMNSLRAEDTAVYYCARDSDVDTSMVTWFDYWGQGTLVTVSS
VL: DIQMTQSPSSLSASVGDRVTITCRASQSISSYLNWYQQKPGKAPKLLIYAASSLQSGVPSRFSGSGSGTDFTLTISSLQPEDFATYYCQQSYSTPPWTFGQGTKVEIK
B6: C118 (antibody, V domains shown)
VH: QVQLVESGGGVVQPGRSLRLSCAASGFTFSNYAMHWVRQAPGKGLEWVAVISYDGSNKYYADSVKGRFTISRDNSKNTLYLQMNSLRAEDTAIYYCASGYTGYDYFVRGDYYGLDVWGQGTTVTVSS
VL: QPVLTQSPSASASLGASVKLTCTLSSGHSSYAIAWHQQQPEKGPRYLMKLNTDGSHSKGDGIPDRFSGSSSGAERYLTISSLQSEDEADYYCQTWGTGILVFGGGTKLTVL
B7: C128 (antibody, V domains shown)
VH: EVQLLESGGGLVQPGGSLRLSCAASGFTFSTYAMSWVRQAPGKGLEWVSTITGSGRDTYYADSVKGRFTISRDNSKNTLFLQLNSLRAEDAAVYSCANHPLASGDDYYHYYMDVWGKGTTVTVSS
VL: EIVLTQSPGTLSLSPGERATLSCRASQSVNSRQLAWYQQKPGQAPRLLIYGASSRATGIPERFSGSGSGTDFTLTISRLESEDFAVYHCQQYGSSRALTFGGGTKVEIK
B8: C027 (antibody, V domains shown)
VH: EVQLVESGGGVVQPGRSLRLSCAASGFTFSSYGMHWVRQAPGKGLEWVAVISYDGSNKYYADSVKGRFTISRDNSKNTLYLQMNSLRAEDTAVYYCAKASGIYCSGGDCYSYYFDYWGQGTLVTVSS
VL: not shown
B9: C134 (antibody, V domains shown)
VH: EVQLLESGGGLVQPGGSLRLSCAASGFTFSNYAMSWVRQAPGKGLEWVSAISGSDGSTYYAGSVKGRFTISRDNSKNTLYLQMNSLRAEDTAVYYCAKDPLITGPTYQYFHYWGQGTLVTVSS
VL: SYELTQPPSVSVAPGKTARITCGGNNIGSKSVHWYQQKPGQAPVLVIYYDSDRPSGIPERFSGSNSGNTATLTISRVEAGDEAEYHCQVWDSSSDRPGVVFGGGTKLTVL
B10: C214 (antibody, V domains shown)
VH: QVQLVESGGGVVQPGRSLRLSCAASGFTFSSYGMHWVRQAPGKGLEWVAAIWYDGSNKHYADSVKGRFTISRDNSKNTLYLQMNSLRAEDTAVYYCARDVGRVTTWFDPWGQGTLVTVSS
VL: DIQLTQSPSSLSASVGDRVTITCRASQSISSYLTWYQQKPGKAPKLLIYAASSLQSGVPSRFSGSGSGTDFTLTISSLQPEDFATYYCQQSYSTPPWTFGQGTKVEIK
B11: C126 (antibody, V domains shown)
VH: QVQLQESGPGLVKPSETLSLSCAVSGGSIGSYFWSWIRQPPGKGLEWIGYLHYSGSTNYNPSLKSRVTISVDTSKNQFSLKLSSVTAADTAVYYCARLQWLRGAFDIWGQGTMVTVSS
VL: NFMLTQPHSVSESPGKTVTISCTGSSGSIASNYVQWYQQRPGSAPTTVINEDNQRPSGVPDRFSGSIDSSSNSASLTISGLKTEDEADYYCQSYDSSNLVFGGGTKLTVL
B12: C153 (antibody, V domains shown)
VH: EVQLVESGGGLIQPGGSLRLSCAASGFTVSSNYMSWVRQAPGKGLEWVSVIYSGYSTYYVDSVKGRFTISRDNSKNTLYLQMNSLRAEDTAVYYCARVGGAHSGYDGSFDYWGQGTLVTVSS
VL: QSALTQPASVSGSPGQSITISCTGTSSDVGSYNLVSWYQQHPGKAPKLMIYEGSKRPSGVSNRFSGSKSGNTASLTISGLQAEDEADYYCCSYAGSSTWVFGGGTKLTVL
B13: C132 (antibody, V domains shown)
VH: QVQLQESGPGLVKPSGTLSLTCAVSGGSISSNNWWSCVRQPPGKGLEWIGEIYHSGSTNYNPSLKSRVTISVDKSKNQFSLKLSSVTAADTAVYYCARGGDTAMGPEYFDYWGQGTLVTVSS
VL: B2 VL with N91S, R99L, V100L, T103G, V107L
B14: C165 (antibody, V domains shown)
VH: QVQLVQSGAEVKKPGSSVKVSCKASGGTFSSYAINWVRQAPGQGLEWMGRIIPIVGIANYAQKFQGRVTITADKSSSTAYMELSSLRSEDTAVYYCARDLLDPQLDDAFDIWGQGTMVTVSS
VL: not shown
B15: C003 (antibody, V domains shown)
VH: EVQLVESGGGLIQPGGSLRLSCAASGFTVSSNYMSWVRQAPGKGLEWVSVIYSGGSTYYADSVKGRFTISRDNSKNTLYLQMNSLRAGDTAVYYCARDYGDFYFDYWGQGTLVTVSS
VL: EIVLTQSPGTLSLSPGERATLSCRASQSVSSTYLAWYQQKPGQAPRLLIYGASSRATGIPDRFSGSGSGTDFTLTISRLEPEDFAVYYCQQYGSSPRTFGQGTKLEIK
B16: C105 (antibody, V domains shown)
VH: QVQLVESGGGLIQPGGSLRLSCAASGFTVSSNYMSWVRQAPGKGLEWVSVIYSGGSTYYADSVKGRFTISRDNSKNTLYLQMNSLRAEDTAVYYCARGEGWELPYDYWGQGTLVTVSS
VL: QSALTQPPSASGSPGQSVTISCTGTSSDVGGYKYVSWYQQHPGKAPKLMIYEVSKRPSGVPDRFSGSKSGNTASLTVSGLQAEDEADYYCSSYEGSNNFVVFGGGTKLTVL
B17: C115 (antibody, V domains shown)
VH: QVQLVESGGGLIKPGRSLRLSCTASGFTFGDYAMTWFRQAPGKGLEWVGFIRSKAYGGTTGYAASVKYRFTISRDDSKSIAYLQMDSLKTEDTAVYYCTRWDGWSQHDYWGQGTLVTVSS
VL: DIVMTQSPLSLSVTPGEPASISCRSSQSLLHSNGNNYFDWYLQKPGQSPQLLIYLGSNRASGVPDRFSGSGSGTDFTLKISRVEAEDVGVYYCMQVLQIPYTFGQGTKLEIK
B18: C002 (antibody, V domains shown)
VH: EVQLVESGGGVVQPGRSLRLSCAASGFTFSIYGMHWVRQAPGKGLEWVAVISYDGSNKYYADSVKGRFTISRDNSKNTLYLQMNSLRAEDTAVYYCAKEGRPSDIVVVVAFDYWGQGTLVTVSS
VL: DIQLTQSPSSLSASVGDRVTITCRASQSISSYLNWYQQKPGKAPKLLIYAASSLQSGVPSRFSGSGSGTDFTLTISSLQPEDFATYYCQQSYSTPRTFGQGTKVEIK
B19: C124 (antibody, V domains shown)
VH: EVQLVESGGGLVQPGGSLRLSCAASGFTFSGYSMNWVRQAPGKGPEWVSYISRSSSTIYYADSVKGRFTISRDNAKNSLYLQMNSLRDEDTAVYYCAREGARVGATYDTYYFDYWGQGTLVTVSS
VL: EIVLTQSPATLSLSPGERATLSCRASQSFSSYLAWYQQKPGQAPRLLIYDASNRATGIPARFSGSGSGTDFTLTISSLEPEDFAVYYCQQRNNWPPEWTFGQGTKVEIK
B20: C113 (antibody, V domains shown)
VH: QVQLVESGGGVVQPGRSLRLSCAASGFTFSNFGMHWVRQAPGKGLEWVAVIWYDGSNKYYADSVKGRFTISRDNSKNTLYLQMNSLRAEDTAVYYCARGVNPDDILTGVDAFDIWGQGTMVTVSS
VL: DIQMTQSPSTLSASVGDRVTITCRASQSMSSWLAWYQQKPGNAPKLLIYKASSLESGVPSRFSGSGSGTEFTLTISSLQPDDFATYYCQQHNSSPLTFGGGTKVEIK
B21: C029 (antibody, V domains shown)
VH: QVQLQESGPGLVKPSQTLSLTCTVSGGSISSGGYYWSWIRQHPGKGLEWIGYIYYSGSTYYNPSLKSRVTISVDTSKNQFSLKLSSVTAADTAVYYCARTMYYYDSSGSFDYWGQGTLVTVSS
VL: not shown
B22: C156 (antibody, V domains shown)
VH: QVQLVESGGGVVQPGRSLRLSCAASGFTFSNYGMHWVRQAPGKGLEWVAVISYDGNNKYYADSVKGRFTISRDNSKNTLYLQMNSLRAEDTAVYYCAKDPFPLAVAGTGYFDYWGQGTLVTVSS
VL: SYELTQPPSVSVAPGQTARISCGGNNIGSKNVHWYQQKPGQAPVLVVYDDSDRPSGIPERFSGSNSGNTATLTISRVEAGDEADYYCQVWDSSSDPWVFGGGTKLTVL

Residue numbers refer to the chain shown, from its start. A value given as a limit tells only on which side of the number the result lay.

One may read the EC50 as the concentration needed to bring the measured effect to its halfway point.

The first assay concerns the target SARS-CoV RBD (SARS-CoV, UniProt P59594). Description: ELISA. In general terms: An ELISA detects its analyte on a solid surface through an enzyme-linked reagent.
As to B1, the 50% effective concentration (EC50) is more than 1000 ng/mL.
In turn, B2 returned an EC50 of more than 1000 ng/mL.
In the case of B3, the EC50 is more than 1000 ng/mL.
The same measure, in the same setting: the result for B4 reads more than 1000 ng/mL.
B5 displayed an EC50 of more than 1000 ng/mL.
The molecule B6 came in with an EC50 of 3.82 ng/mL.
The same measure, in the same setting: the result for B7 reads more than 1000 ng/mL.
Molecule B8 returned a 50% effective concentration (EC50) of 696 ng/mL.
As to B9, the EC50 was more than 1000 ng/mL.
B10: the half-maximal effective concentration (EC50) was more than 1000 ng/mL.
Consider B11, for which the 50% effective concentration (EC50) was more than 1000 ng/mL.
In the case of B12, the EC50 is more than 1000 ng/mL.
In turn, B13 showed an EC50 of more than 1000 ng/mL.
B14 had an EC50 of more than 1000 ng/mL.
Still for that read-out and setting: the result for B15 reads more than 1000 ng/mL; that for B16, more than 1000 ng/mL; that for B17, more than 1000 ng/mL.
B18 had an EC50 of more than 1000 ng/mL.
B19 yielded an EC50 of more than 1000 ng/mL.
The same measure, in the same setting: under B20 stands more than 1000 ng/mL; under B21, more than 1000 ng/mL; under B22, more than 1000 ng/mL.

A further assay concerns the target SARS-CoV-2 RBD (SARS-CoV-2, UniProt P0DTC2). Nature of the assay: ELISA.
In turn, B1 showed a 50% effective concentration (EC50) of 1.87 ng/mL.
In turn, B2 yielded an EC50 of 5.32 ng/mL.
Consider B3, for which the EC50 was found to be 3.86 ng/mL.
Take B4: the EC50 was 1.67 ng/mL.
B5 registered an EC50 of 1.98 ng/mL.
In turn, B6 came in with a half-maximal effective concentration (EC50) of 3.45 ng/mL.
B7 returned a concentration giving a half-maximal response (EC50) of 1.95 ng/mL.
B8: the midpoint of the response, the EC50, lay at 2.65 ng/mL.
Take B9: the EC50 worked out at 1.57 ng/mL.
With B10, the EC50 came out at 5.75 ng/mL.
B11 gave an EC50 of 4.78 ng/mL.
B12: the EC50 turned out to be 3.17 ng/mL.
The same measure, in the same setting: the result for B13 reads 2.92 ng/mL; that for B14, 4.25 ng/mL; that for B15, 6.37 ng/mL.
B16 yielded a concentration for a half-maximal effect (EC50) of 5.2 ng/mL.
In turn, B17 gave an EC50 of 3.4 ng/mL.
On the same count and under the same terms, the result for B18 reads 3.14 ng/mL; that for B19, 2.23 ng/mL; that for B20, 6.93 ng/mL.
Molecule B21 returned an EC50 of 4.13 ng/mL.
The same measure, in the same setting: the result for B22 reads 3.32 ng/mL.
